B1: EphA2 mAb 1×CD3 mAb 2×DR5 mAb 1 (other)
chain 1: DIQMTQTTSSLSASLGDRITISCRASQDISNYLNWYQQKPDGTVKLLIYYTSRLHSGVPSRFSGSGSGTDYSLTISNLEQEDIATYFCQQGYTLYTFGGGTKLEIKGGGSGGGGEVQLVESGGGLVQPGGSLRLSCAASGFTFSTYAMNWVRQAPGKGLEWVGRIRSKYNNYATYYADSVKGRFTISRDDSKNSLYLQMNSLKTEDTAVYYCVRHGNFGNSYVSWFAYWGQGTLVTVSSGGCGGGEVAALEKEVAALEKEVAALEKEVAALEKGGGDKTHTCPPCPAPEAAGGPSVFLFPPKPKDTLMISRTPEVTCVVVDVSHEDPEVKFNWYVDGVEVHNAKTKPREEQYNSTYRVVSVLTVLHQDWLNGKEYKCKVSNKALPAPIEKTISKAKGQPREPQVYTLPPSREEMTKNQVSLWCLVKGFYPSDIAVEWESNGQPENNYKTTPPVLDSDGSFFLYSKLTVDKSRWQQGNVFSCSVMHEALHNHYTQKSLSLSPGK
chain 2: QAVVTQEPSLTVSPGGTVTLTCRSSTGAVTTSNYANWVQQKPGQAPRGLIGGTNKRAPWTPARFSGSLLGGKAALTITGAQAEDEADYYCALWYSNLWVFGGGTKLTVLGGGGSGGGGQVQLKESGPGLVAPSQSLSITCTVSGFSLSRYSVHWVRQPPGKGLEWLGMIWGGGSTDYNSALKSRLSISKDNSKSQVFLKMNSLQTDDTAMYYCARKHGNYYTMDYWGQGTSVTVSSGGCGGGKVAALKEKVAALKEKVAALKEKVAALKE
heavy: EVKFLESGGGLVQPGGSLKLSCVASGFDFSRYWMSWVRQAPGKGLEWIGEINPDSNTINYTPSLKDKFIISRDNAKNTLYLQMTKVRSEDTALYYCTRRAYYGNPAWFAYWGQGTLVTVSSASTKGPSVFPLAPSSKSTSGGTAALGCLVKDYFPEPVTVSWNSGALTSGVHTFPAVLQSSGLYSLSSVVTVPSSSLGTQTYICNVNHKPSNTKVDKRVEPKSCDKTHTCPPCPAPEAAGGPSVFLFPPKPKDTLMISRTPEVTCVVVDVSHEDPEVKFNWYVDGVEVHNAKTKPREEQYNSTYRVVSVLTVLHQDWLNGKEYKCKVSNKALPAPIEKTISKAKGQPREPQVYTLPPSREEMTKNQVSLSCAVKGFYPSDIAVEWESNGQPENNYKTTPPVLDSDGSFFLVSKLTVDKSRWQQGNVFSCSVMHEALHNRYTQKSLSLSPGK
light: DIVLTQSPASLAVSLGQRATISCRASKSVSSSGYSYMHWYQQKPGQPPKVLIFLSSNLDSGVPARFSGSGSGTDFTLNIHPVEDGDAATYYCQHSRDLPPTFGGGTKLEIKRTVAAPSVFIFPPSDEQLKSGTASVVCLLNNFYPREAKVQWKVDNALQSGNSQESVTEQDSKDSTYSLSSTLTLSKADYEKHKVYACEVTHQGLSSPVTKSFNRGEC
notes: a Fab-type heavy chain with hole Fc; a kappa light chain
B2: gpA33 mAb 1×CD3 mAb 2×DR5 mAb 1 (other)
chain 1: DIQLTQSPSFLSASVGDRVTITCSARSSISFMYWYQQKPGKAPKLLIYDTSNLASGVPSRFSGSGSGTEFTLTISSLEAEDAATYYCQQWSSYPLTFGQGTKLEIKGGGSGGGGEVQLVESGGGLVQPGGSLRLSCAASGFTFSTYAMNWVRQAPGKGLEWVGRIRSKYNNYATYYADSVKGRFTISRDDSKNSLYLQMNSLKTEDTAVYYCVRHGNFGNSYVSWFAYWGQGTLVTVSSGGCGGGEVAALEKEVAALEKEVAALEKEVAALEKGGGDKTHTCPPCPAPEAAGGPSVFLFPPKPKDTLMISRTPEVTCVVVDVSHEDPEVKFNWYVDGVEVHNAKTKPREEQYNSTYRVVSVLTVLHQDWLNGKEYKCKVSNKALPAPIEKTISKAKGQPREPQVYTLPPSREEMTKNQVSLWCLVKGFYPSDIAVEWESNGQPENNYKTTPPVLDSDGSFFLYSKLTVDKSRWQQGNVFSCSVMHEALHNHYTQKSLSLSPGK
chain 2: QAVVTQEPSLTVSPGGTVTLTCRSSTGAVTTSNYANWVQQKPGQAPRGLIGGTNKRAPWTPARFSGSLLGGKAALTITGAQAEDEADYYCALWYSNLWVFGGGTKLTVLGGGGSGGGGQVQLVQSGAEVKKPGASVKVSCKASGYTFTGSWMNWVRQAPGQGLEWIGRIYPGDGETNYNGKFKDRVTITADKSTSTAYMELSSLRSEDTAVYYCARIYGNNVYFDVWGQGTTVTVSSGGCGGGKVAALKEKVAALKEKVAALKEKVAALKE
heavy: EVKFLESGGGLVQPGGSLKLSCVASGFDFSRYWMSWVRQAPGKGLEWIGEINPDSNTINYTPSLKDKFIISRDNAKNTLYLQMTKVRSEDTALYYCTRRAYYGNPAWFAYWGQGTLVTVSSASTKGPSVFPLAPSSKSTSGGTAALGCLVKDYFPEPVTVSWNSGALTSGVHTFPAVLQSSGLYSLSSVVTVPSSSLGTQTYICNVNHKPSNTKVDKRVEPKSCDKTHTCPPCPAPEAAGGPSVFLFPPKPKDTLMISRTPEVTCVVVDVSHEDPEVKFNWYVDGVEVHNAKTKPREEQYNSTYRVVSVLTVLHQDWLNGKEYKCKVSNKALPAPIEKTISKAKGQPREPQVYTLPPSREEMTKNQVSLSCAVKGFYPSDIAVEWESNGQPENNYKTTPPVLDSDGSFFLVSKLTVDKSRWQQGNVFSCSVMHEALHNRYTQKSLSLSPGK
light: DIVLTQSPASLAVSLGQRATISCRASKSVSSSGYSYMHWYQQKPGQPPKVLIFLSSNLDSGVPARFSGSGSGTDFTLNIHPVEDGDAATYYCQHSRDLPPTFGGGTKLEIKRTVAAPSVFIFPPSDEQLKSGTASVVCLLNNFYPREAKVQWKVDNALQSGNSQESVTEQDSKDSTYSLSSTLTLSKADYEKHKVYACEVTHQGLSSPVTKSFNRGEC
B3: EphA2 mAb 1×CD3 mAb 2×gpA33 mAb 1 (other)
chain 1: DIQMTQTTSSLSASLGDRITISCRASQDISNYLNWYQQKPDGTVKLLIYYTSRLHSGVPSRFSGSGSGTDYSLTISNLEQEDIATYFCQQGYTLYTFGGGTKLEIKGGGSGGGGEVQLVESGGGLVQPGGSLRLSCAASGFTFSTYAMNWVRQAPGKGLEWVGRIRSKYNNYATYYADSVKGRFTISRDDSKNSLYLQMNSLKTEDTAVYYCVRHGNFGNSYVSWFAYWGQGTLVTVSSGGCGGGEVAALEKEVAALEKEVAALEKEVAALEKGGGDKTHTCPPCPAPEAAGGPSVFLFPPKPKDTLMISRTPEVTCVVVDVSHEDPEVKFNWYVDGVEVHNAKTKPREEQYNSTYRVVSVLTVLHQDWLNGKEYKCKVSNKALPAPIEKTISKAKGQPREPQVYTLPPSREEMTKNQVSLWCLVKGFYPSDIAVEWESNGQPENNYKTTPPVLDSDGSFFLYSKLTVDKSRWQQGNVFSCSVMHEALHNHYTQKSLSLSPGK
chain 2: QAVVTQEPSLTVSPGGTVTLTCRSSTGAVTTSNYANWVQQKPGQAPRGLIGGTNKRAPWTPARFSGSLLGGKAALTITGAQAEDEADYYCALWYSNLWVFGGGTKLTVLGGGGSGGGGQVQLKESGPGLVAPSQSLSITCTVSGFSLSRYSVHWVRQPPGKGLEWLGMIWGGGSTDYNSALKSRLSISKDNSKSQVFLKMNSLQTDDTAMYYCARKHGNYYTMDYWGQGTSVTVSSGGCGGGKVAALKEKVAALKEKVAALKEKVAALKE
heavy: QVQLVQSGAEVKKPGASVKVSCKASGYTFTGSWMNWVRQAPGQGLEWIGRIYPGDGETNYNGKFKDRVTITADKSTSTAYMELSSLRSEDTAVYYCARIYGNNVYFDVWGQGTTVTVSSASTKGPSVFPLAPSSKSTSGGTAALGCLVKDYFPEPVTVSWNSGALTSGVHTFPAVLQSSGLYSLSSVVTVPSSSLGTQTYICNVNHKPSNTKVDKRVEPKSCDKTHTCPPCPAPEAAGGPSVFLFPPKPKDTLMISRTPEVTCVVVDVSHEDPEVKFNWYVDGVEVHNAKTKPREEQYNSTYRVVSVLTVLHQDWLNGKEYKCKVSNKALPAPIEKTISKAKGQPREPQVYTLPPSREEMTKNQVSLSCAVKGFYPSDIAVEWESNGQPENNYKTTPPVLDSDGSFFLVSKLTVDKSRWQQGNVFSCSVMHEALHNRYTQKSLSLSPGK
light: DIQLTQSPSFLSASVGDRVTITCSARSSISFMYWYQQKPGKAPKLLIYDTSNLASGVPSRFSGSGSGTEFTLTISSLEAEDAATYYCQQWSSYPLTFGQGTKLEIKRTVAAPSVFIFPPSDEQLKSGTASVVCLLNNFYPREAKVQWKVDNALQSGNSQESVTEQDSKDSTYSLSSTLTLSKADYEKHKVYACEVTHQGLSSPVTKSFNRGEC
B4: gpA33 mAb 1 x CD3 mAb 2 (bispecific antibody)
first polypeptide chain (VL gpA33 mAb 1 - Linker 1 - VH CD3 mAb 2 D65G - ASTKG - cysteine-containing E-coil): DIQLTQSPSFLSASVGDRVTITCSARSSISFMYWYQQKPGKAPKLLIYDTSNLASGVPSRFSGSGSGTEFTLTISSLEAEDAATYYCQQWSSYPLTFGQGTKLEIKGGGSGGGGEVQLVESGGGLVQPGGSLRLSCAASGFTFSTYAMNWVRQAPGKGLEWVGRIRSKYNNYATYYADSVKGRFTISRDDSKNSLYLQMNSLKTEDTAVYYCVRHGNFGNSYVSWFAYWGQGTLVTVSSASTKGEVAACEKEVAALEKEVAALEKEVAALEK
second polypeptide chain (VL CD3 mAb 2 - Linker 1 - VH gpA33 mAb 1 - ASTKG - cysteine-containing K-coil): QAVVTQEPSLTVSPGGTVTLTCRSSTGAVTTSNYANWVQQKPGQAPRGLIGGTNKRAPWTPARFSGSLLGGKAALTITGAQAEDEADYYCALWYSNLWVFGGGTKLTVLGGGGSGGGGQVQLVQSGAEVKKPGASVKVSCKASGYTFTGSWMNWVRQAPGQGLEWIGRIYPGDGETNYNGKFKDRVTITADKSTSTAYMELSSLRSEDTAVYYCARIYGNNVYFDVWGQGTTVTVSSASTKGKVAACKEKVAALKEKVAALKEKVAALKE

Legend:
[1] = target: T1, EphA2 on EphA2-expressing CHO cells (UniProt P29317 24-976, limits assumed); test: FACS on EphA2-expressing CHO cells (Log MFI)
T1 construct: whole, on cells; EphA2 mAb 1 is called an anti-human EphA2 antibody; also called EphA2-expressing CHO target cells

[2] = target: T2, DR5 on DR5-expressing CHO cells (UniProt O14763 56-440, limits assumed); test: FACS on DR5-expressing CHO cells (Log MFI)
T2 construct: whole, on cells; also called DR5-expressing CHO target cells
From the text: The ability of Tri-Specific Binding Molecules of the present invention to bind to target cells was investigated.

[3] = target: T3, EphA2 on DU145 human prostate cells (human, UniProt P29317 24-976); test: FACS on DU145 cells (gpA33- EphA2+ DR5+), Log MFI; only the EphA2 domain has its antigen on these cells
T3 construct: whole, on cells; DU145 cells carry both EphA2 and DR5; also called DU145 cells (express EphA2 and DR5, not gpA33)

[4] = target: T4, DR5 on DU145 human prostate cells (human, UniProt O14763 56-440); test: FACS on DU145 cells (gpA33- EphA2+ DR5+), Log MFI
T4 construct: whole, on cells; DU145 cells carry both EphA2 and DR5; also called DU145 cells (express EphA2 and DR5, not gpA33)

[5] = target: T3, EphA2 on DU145 human prostate cells; test: FACS on DU145 cells (gpA33- EphA2+ DR5+), Log MFI

| Binder | EC50 (read off the curve) [1] | EC50 (read off the curve) [2] | binding result [1] | EC50 (read off the curve) [3] | binding result [2] | binding result [4] | binding result [5] |
| --- | --- | --- | --- | --- | --- | --- | --- |
| B1 | ~0.7 nM | ~0.9 nM | – | – | – | – | – |
| B2 | – | ~0.9 nM | no binding | – | – | – | – |
| B3 | ~0.9 nM | – | – | ~1 nM | no binding | – | – |
| B4 | – | – | no binding | – | no binding | no binding | no binding |
